The data set in a line: protein stability index of a GFP-peptide fusion (GPS, HEK-293T) (PSI 1-6); higher = more stable. The note with it: c terminus: a fixed tail appended.

Our source for the protein stability index values is the supplement of paper PMC10567573.

± gives the standard deviation.
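Also: 24-mer peptide tiles fused after GFP, lentivirally expressed, FACS-sorted into six equal bins by GFP/DsRed ratio, decoded by Illumina sequencing, PSI is the read-weighted mean bin number.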

On to EQMKVYKCEHCRVLFLDHVMYTIH [IKZF1], for which the protein stability index was 2.37 ± 0.34 (treatment: DMSO) and 2.23 ± 0.41 (treatment: MLN4924 1 uM, 8 h).

Regarding EQVFLYENARSGAEAEPEDQDEGE [ZBED1], the protein stability index reads like this: (treatment: DMSO) 5.7 ± 0.25; (treatment: MLN4924 1 uM, 8 h) 5.52 ± 0.4.

ERCLLNNSLWKKNKTICKERLQIL [NLN]: the protein stability index reads like this: (treatment: DMSO) 2.31 ± 0.26; (treatment: MLN4924 1 uM, 8 h) 2.7 ± 0.49.

As for ERKKVQIRSMDPSALASDRFNLIL [DCAF4], the protein stability index by setting is: (treatment: DMSO) 2.29 ± 0.16; (treatment: MLN4924 1 uM, 8 h) 2.5 ± 0.23.

As to ERLYVIGGNHFRGTSDYDDVLSCE [KLHL13], the protein stability index reads like this: (treatment: DMSO) 3.28 ± 0.19; (treatment: MLN4924 1 uM, 8 h) 3.35 ± 0.18.

Take ERVALANRKRECGNAHYQRADFVL [FKBP8]: the protein stability index (treatment: DMSO) was 2.98 ± 0.27 and the protein stability index (treatment: MLN4924 1 uM, 8 h) stood at 2.75 ± 0.12.

Consider ESHKAKNESWIKSHFSRLSEEKLA [C10orf62], for which the protein stability index was 3.81 ± 0.17 (treatment: DMSO) and 3.86 ± 0.35 (treatment: MLN4924 1 uM, 8 h).

In turn, ESLDYDRCINDPYLEVLETMDNKK [CLCN6] gave a protein stability index (treatment: DMSO) of 5.21 ± 0.25 and a protein stability index (treatment: MLN4924 1 uM, 8 h) of 5.29 ± 0.37.

Sequence ESNVSMASLGEKRDHHSTHYRASE [CHGB] returned a protein stability index (treatment: DMSO) of 4.71 ± 0.27 and a protein stability index (treatment: MLN4924 1 uM, 8 h) of 4.79 ± 0.33.

For the sequence ESTPVGTVVGLFNVRDRDSGRNGE [PCDHGC5], the protein stability index by setting is: (treatment: DMSO) 4.92 ± 0.33; (treatment: MLN4924 1 uM, 8 h) 4.89 ± 0.31.

As to ESVDEAGGSGPAGLRASTSDGILR [RHOBTB2], the protein stability index runs as follows: (treatment: DMSO) 5.14 ± 0.21; (treatment: MLN4924 1 uM, 8 h) 5.16 ± 0.2.

As for ETALTLACCGGFLEVADFLIKAGA [ANKRD17], the protein stability index by setting is: (treatment: DMSO) 2.54 ± 0.9; (treatment: MLN4924 1 uM, 8 h) 2.65 ± 0.76.

With ETFLSFLEYLYTDSCCPAGIFQAM [RHOBTB3], the protein stability index runs as follows: (treatment: DMSO) 2.96 ± 0.48; (treatment: MLN4924 1 uM, 8 h) 2.56 ± 0.35.

For the sequence ETRRLSIGLDNGTISEFILSEDYN [WDFY2], the protein stability index by setting is: (treatment: DMSO) 3.84 ± 0.34; (treatment: MLN4924 1 uM, 8 h) 4.03 ± 0.3.

As to ETVGGAILDQTTSEDAVGGATLGQ [HDAC6], the protein stability index (treatment: DMSO) was 5.29 ± 0.25 and the protein stability index (treatment: MLN4924 1 uM, 8 h) was found to be 5.62 ± 0.25.

On to EVIVFGGCANNLLVHHRAAHSNEI [KLHDC2], for which the protein stability index was found to be 2.13 ± 0.19 (treatment: DMSO) and 2.2 ± 0.26 (treatment: MLN4924 1 uM, 8 h).

In the case of EVRLVQKKDTGHIYAMKILRKSDM [STK38L], the protein stability index amounted to 2.65 ± 0.22 (treatment: DMSO) and 2.45 ± 0.29 (treatment: MLN4924 1 uM, 8 h).

With EVTLEANPTSAPGSRLAEFGAAGV [RSAD1], the protein stability index stood at 4.21 ± 0.13 (treatment: DMSO) and 4.25 ± 0.24 (treatment: MLN4924 1 uM, 8 h).

On to EYAGSNTYEEAAAYIQCQFEDLNK [GNAI1], for which the protein stability index is, setting by setting: (treatment: DMSO) 3.95 ± 0.37; (treatment: MLN4924 1 uM, 8 h) 4.12 ± 0.5.

For the sequence EYEAGRAGPGGGAERRRAGRLLLT [ESRRA], the protein stability index by setting is: (treatment: DMSO) 4.23 ± 0.37; (treatment: MLN4924 1 uM, 8 h) 4.33 ± 0.18.

EYVHSKNLIYRDVKPENFLIGRPG [CSNK1G3] gave a protein stability index (treatment: DMSO) of 2.79 ± 0.32 and a protein stability index (treatment: MLN4924 1 uM, 8 h) of 2.78 ± 0.32.

As for FAKAKPEIPWTSLTRKGLVRVVFF [PHTF1], the protein stability index by setting is: (treatment: DMSO) 3.41 ± 0.51; (treatment: MLN4924 1 uM, 8 h) 3.29 ± 0.84.

FASGGFQVKLYDIEQQQIRNALEN [CRYL1]: the protein stability index is 2.56 ± 0.28 (treatment: DMSO) and 2.95 ± 0.83 (treatment: MLN4924 1 uM, 8 h).

FCADNPSELPPPMERTGGIGDSRP [DVL3] displayed a protein stability index (treatment: DMSO) of 4.45 ± 0.32 and a protein stability index (treatment: MLN4924 1 uM, 8 h) of 4.62 ± 0.32.

For FCDRCCSQKVPLRRMCFVDPVRQC [ZFYVE21], the protein stability index amounted to 2.29 ± 0.14 (treatment: DMSO) and 2.04 ± 0.15 (treatment: MLN4924 1 uM, 8 h).

Consider FDIQQGFDNPQVRFFLGDLCSRQD [NSDHL], for which the protein stability index by setting is: (treatment: DMSO) 2.94 ± 0.24; (treatment: MLN4924 1 uM, 8 h) 2.86 ± 0.31.

With FDSHRLPGDCFLLLVLLLYAPVGF [AUP1], the protein stability index worked out at 3.02 ± 0.62 (treatment: DMSO) and 3.15 ± 0.17 (treatment: MLN4924 1 uM, 8 h).

As for FEFDETSFWNSSHPRGWNDHVHIL [KLHDC2], the protein stability index is, setting by setting: (treatment: DMSO) 2.37 ± 0.64; (treatment: MLN4924 1 uM, 8 h) 2.18 ± 0.28.

For FETHESDINSVRYYPSGDAFASGS [GNB5], the protein stability index came to 3.9 ± 0.25 (treatment: DMSO) and 3.94 ± 0.16 (treatment: MLN4924 1 uM, 8 h).

For the sequence FFWHLTLPERRGTCADRDNLTRRF [CASP6], the protein stability index (treatment: DMSO) was 2.61 ± 0.36 and the protein stability index (treatment: MLN4924 1 uM, 8 h) came to 2.09 ± 0.18.

FGAWRCLLDATVAGGQTRLQASDR [FCHSD1]: the protein stability index reads like this: (treatment: DMSO) 2.36 ± 0.27; (treatment: MLN4924 1 uM, 8 h) 2.48 ± 0.34.

Regarding FGVAGRSCQEVLRKGCLRFQLPER [DFFB], the protein stability index amounted to 2.33 ± 0.24 (treatment: DMSO) and 2.25 ± 0.12 (treatment: MLN4924 1 uM, 8 h).

For the sequence FIGEESVAAGEKSILTDNPTWIID [IMPA1], the protein stability index was determined as 2.82 ± 0.46 (treatment: DMSO) and 3.38 ± 0.28 (treatment: MLN4924 1 uM, 8 h).

As for FKTGNSTATCTTNNNPNSCVNIKK [KCNA3], the protein stability index was determined as 4.53 ± 0.15 (treatment: DMSO) and 4.58 ± 0.36 (treatment: MLN4924 1 uM, 8 h).

For the sequence FLEEDNYKNIKRPPGDIMFLLVQR [USP39], the protein stability index amounted to 2.23 ± 0.37 (treatment: DMSO) and 2.11 ± 0.27 (treatment: MLN4924 1 uM, 8 h).

FLGHHSFSVRPGTEATISIREDEV [SCNN1D]: the protein stability index runs as follows: (treatment: DMSO) 2.42 ± 0.64; (treatment: MLN4924 1 uM, 8 h) 3.12 ± 0.52.

For FLNFNGMKLFLDCLKEFPEKQELH [ZER1], the protein stability index runs as follows: (treatment: DMSO) 2.29 ± 0.18; (treatment: MLN4924 1 uM, 8 h) 2.42 ± 0.18.

As for FLPEKKDTGVFAVVNSHSLSLLGK [SLC22A15], the protein stability index is 2.57 ± 0.39 (treatment: DMSO) and 2.83 ± 0.52 (treatment: MLN4924 1 uM, 8 h).

For the sequence FLQRGADTNLGRLEDGQTPLHLSA [ASB7], the protein stability index runs as follows: (treatment: DMSO) 3.61 ± 0.17; (treatment: MLN4924 1 uM, 8 h) 3.76 ± 0.26.

For the sequence FMLGLGTLLPWNFFMTATQYFTNR [SLC29A1], the protein stability index by setting is: (treatment: DMSO) 2.87 ± 0.55; (treatment: MLN4924 1 uM, 8 h) 3.13 ± 0.26.

FNFKFNLTEDMYAQDSIELLTTSG [CNOT7]: the protein stability index (treatment: DMSO) came out at 1.825 ± 0.003.

As for FPACRVSVTGLDPEARYLFLLDVI [TBX6], the protein stability index (treatment: DMSO) worked out at 2.56 ± 0.53 and the protein stability index (treatment: MLN4924 1 uM, 8 h) is 2.09 ± 0.24.

Take FPSDHLGDLGDPFHLGLEDILMEE [TFE3]: the protein stability index by setting is: (treatment: DMSO) 3.82 ± 0.19; (treatment: MLN4924 1 uM, 8 h) 4.04 ± 0.4.

Regarding FPSSGRFWKLYIEAEVTILFYFFL [CSTF3], the protein stability index reads like this: (treatment: DMSO) 2.87 ± 0.66; (treatment: MLN4924 1 uM, 8 h) 2.35 ± 0.9.

On to FRQMATALAHCHQHGLVLRDLKLC [TRIB3], for which the protein stability index runs as follows: (treatment: DMSO) 2.21 ± 0.38; (treatment: MLN4924 1 uM, 8 h) 2.03 ± 0.3.

With FSEIRETSAKVNWMPPPSRADSFK [TNXB], the protein stability index is 3.58 ± 0.31 (treatment: DMSO) and 3.88 ± 0.37 (treatment: MLN4924 1 uM, 8 h).

Consider FSFKVSRWMGLACFRSLAASSPSI [CCDC70], for which the protein stability index is, setting by setting: (treatment: DMSO) 2.2 ± 0.34; (treatment: MLN4924 1 uM, 8 h) 2.63 ± 0.53.

FSIGLGPMPWLVLSEIFPGGIRGR [SLC2A12] yielded a protein stability index (treatment: DMSO) of 2.29 ± 0.67 and a protein stability index (treatment: MLN4924 1 uM, 8 h) of 2.51 ± 0.5.

Consider FSPSQFLNFWNKQDTLELESPSLT [MYBL2], for which the protein stability index is, setting by setting: (treatment: DMSO) 2.47 ± 0.55; (treatment: MLN4924 1 uM, 8 h) 3.06 ± 0.39.

For FTSSPSPFSSSSPENVEDSGLDSP [FCHO1], the protein stability index was 2.86 ± 0.94 (treatment: DMSO) and 3.81 ± 0.87 (treatment: MLN4924 1 uM, 8 h).

For FTYDPWIGKLLYLEDFFVMSDYRG [SAT1], the protein stability index (treatment: DMSO) was 2.88 ± 0.51 and the protein stability index (treatment: MLN4924 1 uM, 8 h) is 2.79 ± 0.76.

For the sequence FVLSLVKKHYRLQFYMFGWTHVTL [CDS2], the protein stability index by setting is: (treatment: DMSO) 2.99 ± 0.57; (treatment: MLN4924 1 uM, 8 h) 2.99 ± 0.67.

In the case of FYLPREELWIYNMETGRWKKINTE [KLHDC2], the protein stability index reads like this: (treatment: DMSO) 2.63 ± 0.22; (treatment: MLN4924 1 uM, 8 h) 2.32 ± 0.49.
